Conditions in all cases: remark: other sources report otherwise
In test [1] the target is T1, recombinant soluble homotrimeric HA of A/swine/Ontario/01911-2/99 (H4N6) (Influenza A virus A/Swine/Ontario/01911-2/99 (H4N6)). Briefly: trimeric HA microarray, transfection supernatant set 1.
The target of test [2] is T2, recombinant soluble homotrimeric HA of A/duck/Yangzhou/02/05 (H8N4) (Influenza A virus A/duck/Yangzhou/02/2005(H8N4)). The test is described as above.
The target of test [3] is T3, recombinant soluble homotrimeric HA of A/Wisconsin/67/05 (H3N2) (Influenza A virus A/Wisconsin/67/2005(H3N2)). Described as above.
In test [4] the target is T4, recombinant soluble homotrimeric HA of A/Hong Kong/2108/03 (H9N2) (Influenza A virus A/HK/2108/2003(H9N2)). Briefly: trimeric HA microarray, transfection supernatant set 3.
Test [5] deals with T4, recombinant soluble homotrimeric HA of …. Kind of test: trimeric HA microarray, transfection supernatant set 1.
Test [6] concerns the target T5, recombinant soluble homotrimeric HA of A/northern shoveler/California/HKWF115/07 (H6) (Influenza A virus A/northern shoveler/California/HKWF115/2007(H6N1)). The description is as above.
The target in test [7] is recombinant soluble homotrimeric HA of A/Hong Kong/1073/99 (H9N2) (Influenza A virus A/Hong Kong/1073/99 (H9N2)). Described as above.
Test [8] concerns the target recombinant soluble homotrimeric HA of A/Anhui/1/05 (H5N1) (Influenza A virus A/Anhui/1/2005(H5N1)).
Test [9] concerns the target T1, recombinant soluble homotrimeric HA of ….
The target in test [10] is recombinant soluble homotrimeric HA of A/Vietnam/1203/04 (H5N1) (Influenza A virus A/VietNam/1203/2004(H5N1)).
Test [11] deals with recombinant soluble homotrimeric HA of A/Indonesia/5/05 (H5N1) (Influenza A virus A/Indonesia/5/2005(H5N1)).
The target of test [12] is T5, recombinant soluble homotrimeric HA of ….
In test [13] the target is recombinant soluble homotrimeric HA of A/chicken/Vietnam/NCVD-016/08 (H5N1) (Influenza A virus A/chicken/Vietnam/NCVD-016/2008(H5N1)).
Test [14] has as its target recombinant soluble homotrimeric HA of A/California/4/09 (H1N1) (Influenza A virus A/California/04/2009(H1N1)).
Test [15] deals with T2, recombinant soluble homotrimeric HA of ….
Test [16] addresses recombinant soluble homotrimeric HA of A/Japan/305/57 (H2N2) (Influenza A virus A/Japan/305/1957(H2N2)).
Test [17] addresses T3, recombinant soluble homotrimeric HA of ….

Where two headings read alike, the source gives them in different places.

B1: TCN-504 (3251_K17) (antibody, V domains shown)
VH: QVQLQESGPGLVKPSETLSLTCAVSGVSISNIDFYWGWIRQPPGKGLEWIGNIYYTGITFYNPSLSSRVAISIDTSKNQFSLTLTSVTAADTAMYYCARHYGDSEAINDAFDIWGQGTMLTVSS
VL: EIVMTQSPATLSVSPGERATLSCRASQSVGNSLAWYQQRPGQAPRLLIYGASTRATGIPPRFSGSGSGTEFTLTISSLQTEDFAVYYCQQYINWRPLSFGGGTKVEIK
With B1, the Trimeric HA Binding: RLU in test [1] was found to be 26500 RLU; in [2], 28900 RLU; in test [3], 14300 RLU.

B2: TCN-523 (5248_A17) (antibody, V domains shown)
VH: QVQLVQSGAEVKKPGSSVKVSCKASGGSFSNYAFSWVRQAPGQGLEWMGGTIPLLGTTNYAQKFQGRVTISADQFTSTAYMELGSLRSEDTAVYYCTRRKMTTAFDSWGQGTLVTVSS
VL: QPVLTQPPSASASLGASVTLTCTLSSAYSNYKVDWYQQRPGKGPRFVMRVGTGGIVGSKGDGIPDRFSVLGSGLNRYLTIKNIQEEDESDYHCGADHGSGSNFVSPYVFGGGTKLTVL
In the case of B2, the Trimeric HA Binding: RLU in test [4] came to 51 RLU; in test [5], 41 RLU; in [6], 9050 RLU; in test [7], 21700 RLU.

B3: TCN-563 (5237_B21) (antibody, V domains shown)
VH: QVQLAQSGAEVKRPGSSVKVSCTASGGIFRKNAISWVRQAPGQGLEWMGGIIAVFNTANYAQKFQGRVKITADESGNTAYMELSSLRSDDTAVYYCASHPKYFYGSGSYPDFWGQGTLVTVSS
VL: QSALTQPRSVSGSPGQSVTISCTGSSSDVGASNSVSWYQQHPGKAPKLVIYDVTERPSGVPHRFSGSKSGNTASLTVSGLQPEDEADYFCCAYGGKYLVVFGGGTKVTVL
Take B3: the Trimeric HA Binding: RLU worked out at 7520 RLU in test [8]; 376 RLU in [9]; 27700 RLU in test [10]; 23200 RLU in test [11]; 21400 RLU in test [12]; 8580 RLU in test [13]. Further, the Trimeric HA Binding: RLU in [14] was 25900 RLU; in test [15], 327 RLU; in test [16] it was 12400 RLU; in [17], 314 RLU.

The values above are taken from patent US20150086555A1.
